Publication doi:10.1101/481713

Assays:
[1] = target: human Broccoli Ndc80-GFP construct (human) (UniProt O14777)
[2] = target: Xenopus laevis CENP-E-GFP construct (1-473 aa) (Xenopus laevis); experiment: binding of microtubules to protein-coated beads seen by fluorescence microscopy
[3] = target: human Broccoli Ndc80-GFP construct (human) (UniProt O14777); experiment: as above

Chain of UniProt O14777 (O14777 whole entry, looked up, the tested form may be a part): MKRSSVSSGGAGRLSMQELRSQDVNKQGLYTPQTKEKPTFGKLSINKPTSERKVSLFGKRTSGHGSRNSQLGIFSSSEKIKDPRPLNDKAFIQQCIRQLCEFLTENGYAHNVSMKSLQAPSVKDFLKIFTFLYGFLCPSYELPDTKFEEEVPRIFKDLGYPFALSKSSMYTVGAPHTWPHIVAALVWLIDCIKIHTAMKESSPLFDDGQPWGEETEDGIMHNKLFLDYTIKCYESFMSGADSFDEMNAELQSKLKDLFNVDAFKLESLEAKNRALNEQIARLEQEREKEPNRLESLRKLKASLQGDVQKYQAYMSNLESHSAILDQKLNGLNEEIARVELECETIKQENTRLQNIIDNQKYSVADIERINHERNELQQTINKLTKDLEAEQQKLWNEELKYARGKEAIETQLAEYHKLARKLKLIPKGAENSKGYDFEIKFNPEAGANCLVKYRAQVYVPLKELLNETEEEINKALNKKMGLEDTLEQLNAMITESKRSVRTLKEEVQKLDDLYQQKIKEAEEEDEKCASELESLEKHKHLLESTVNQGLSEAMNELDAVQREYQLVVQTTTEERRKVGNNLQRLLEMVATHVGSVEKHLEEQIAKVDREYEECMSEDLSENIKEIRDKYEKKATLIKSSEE

reduction of CENP-E motor gliding velocity on beads by the Ndc80 coating [1]: 4 fold
MT end-retention time [2]: 1.1 min
percent of MT plus-ends retained at the CENP-E–coated bead [2]: 24%
time within which >80% of MTs detached (Kaplan–Meier) [2]: < 2.5 min
percent of MT segments attached via their ends to beads coated with Ndc80 alone [3]: 3%
Substance: microtubules polymerised from bovine brain tubulin (from UniProt Q6B856 1-445) (complex)
